The data set concerns Escherichia coli TOP10. The data set can be described thus: shrunken log2 fold change of peptide-encoding DNA abundance (4.5 h post-induction vs induction); higher = less antimicrobial activity (less host growth inhibition). As to conditions: time post-induction: 4.5 h; library: site-saturation at positions 5, 18, 19, 20.
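Further: peptides expressed intracellularly from a pBAD plasmid library in pooled LB shake-flask culture, induced with 0.3% L-arabinose, DNA abundance read by NGS, three biological replicates, DESeq2 with apeglm shrinkage.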

In the case of RRIRDRPPRLPRPRPRPTSVPRP, the “shrunken log2 fold change” value was -0.0218.

For the sequence RRIRHRPPRLPRPRPRPQIIPRP, the “shrunken log2 fold change” value was -0.634.

As for RRIRRRPPRLPRPRPRPMPIPRP, the “shrunken log2 fold change” value was 0.25.

As to RRIRCRPPRLPRPRPRPETHPRP, the “shrunken log2 fold change” value was determined as 0.0444. Next, RRIRSRPPRLPRPRPRPECKPRP: 0.275; RRIRCRPPRLPRPRPRPRTRPRP: 0.47.

As to RRIRTRPPRLPRPRPRPVVMPRP, the “shrunken log2 fold change” value was -0.0861. In the case of RRIRWRPPRLPRPRPRPGPDPRP, the “shrunken log2 fold change” value amounted to 0.533. Next, RRIRTRPPRLPRPRPRPGDSPRP: 0.152; RRIRARPPRLPRPRPRPMCYPRP: -0.112.

As for RRIRHRPPRLPRPRPRPAMDPRP, the “shrunken log2 fold change” value was -0.221. RRIRCRPPRLPRPRPRPSMRPRP: the “shrunken log2 fold change” value turned out to be 0.303. Consider RRIRYRPPRLPRPRPRPYICPRP, for which the “shrunken log2 fold change” value was -0.234.

As for RRIRFRPPRLPRPRPRPHRNPRP, the “shrunken log2 fold change” value is -0.257.

With RRIRDRPPRLPRPRPRPHKQPRP, the “shrunken log2 fold change” value amounted to 0.00319.

With RRIRKRPPRLPRPRPRPGKPPRP, the “shrunken log2 fold change” value was 0.115. Turning to RRIRARPPRLPRPRPRPSYPPRP, the “shrunken log2 fold change” value is -0.312. Next, RRIRGRPPRLPRPRPRPQMLPRP: -0.0638; RRIRTRPPRLPRPRPRPFPCPRP: -0.197; RRIRNRPPRLPRPRPRPATSPRP: -0.214. Take RRIRMRPPRLPRPRPRPFYLPRP: the “shrunken log2 fold change” value is -0.191.

On to RRIRQRPPRLPRPRPRPKSFPRP, for which the “shrunken log2 fold change” value came out at 0.0406.

Take RRIRMRPPRLPRPRPRPVAKPRP: the “shrunken log2 fold change” value is 1.43. Next, RRIRDRPPRLPRPRPRPTQDPRP: 1.27; RRIRDRPPRLPRPRPRPIRVPRP: -0.185. Next, RRIRRRPPRLPRPRPRPKHTPRP: 0.32. Next, RRIRMRPPRLPRPRPRPTAEPRP: 2.75; RRIRFRPPRLPRPRPRPWMCPRP: -0.0872; RRIRVRPPRLPRPRPRPQFKPRP: -0.576. Regarding RRIRHRPPRLPRPRPRPDIIPRP, the “shrunken log2 fold change” value is -0.0233.

Take RRIRERPPRLPRPRPRPKTLPRP: the “shrunken log2 fold change” value is -0.185. Next, RRIRSRPPRLPRPRPRPAEFPRP: 0.00621; RRIRPRPPRLPRPRPRPFRVPRP: 0.0659. On to RRIRIRPPRLPRPRPRPDSGPRP, for which the “shrunken log2 fold change” value turned out to be 0.00524.

As to RRIRIRPPRLPRPRPRPPNVPRP, the “shrunken log2 fold change” value was 0.0421.

In the case of RRIRNRPPRLPRPRPRPFNYPRP, the “shrunken log2 fold change” value is -0.752.

In the case of RRIRVRPPRLPRPRPRPTRSPRP, the “shrunken log2 fold change” value came to 0.17. On to RRIRNRPPRLPRPRPRPHMCPRP, for which the “shrunken log2 fold change” value is -0.0575.

As for RRIRSRPPRLPRPRPRPKYPPRP, the “shrunken log2 fold change” value was -0.186. Turning to RRIRFRPPRLPRPRPRPTGGPRP, the “shrunken log2 fold change” value is 0.259.

With RRIRVRPPRLPRPRPRPRTGPRP, the “shrunken log2 fold change” value was -0.0024.

On to RRIRIRPPRLPRPRPRPPYKPRP, for which the “shrunken log2 fold change” value was -0.386.

On to RRIRQRPPRLPRPRPRPLKDPRP, for which the “shrunken log2 fold change” value is -0.164. Take RRIRVRPPRLPRPRPRPCHPPRP: the “shrunken log2 fold change” value was -0.0124. In the case of RRIRCRPPRLPRPRPRPRGMPRP, the “shrunken log2 fold change” value is 1.56. Next, RRIRIRPPRLPRPRPRPLNTPRP: -0.876; RRIRMRPPRLPRPRPRPHSDPRP: 2.6. Next, RRIRDRPPRLPRPRPRPMTYPRP: -0.109; RRIRFRPPRLPRPRPRPFHYPRP: 0.0611. Next, RRIRWRPPRLPRPRPRPDCSPRP: 0.113. For the sequence RRIRARPPRLPRPRPRPEYFPRP, the “shrunken log2 fold change” value worked out at 0.188. Next, RRIRDRPPRLPRPRPRPQFKPRP: -0.0159. Next, RRIRVRPPRLPRPRPRPGFHPRP: -0.184; RRIRKRPPRLPRPRPRPQPQPRP: 0.817. Next, RRIRFRPPRLPRPRPRPPPQPRP: 1.33. For RRIRTRPPRLPRPRPRPSVLPRP, the “shrunken log2 fold change” value is -0.239. Consider RRIRRRPPRLPRPRPRPVGLPRP, for which the “shrunken log2 fold change” value is 0.111. Next, RRIRWRPPRLPRPRPRPFNKPRP: -0.441; RRIRTRPPRLPRPRPRPKNVPRP: 0.0149; RRIRCRPPRLPRPRPRPIYAPRP: -0.281.

Regarding RRIRQRPPRLPRPRPRPFTPPRP, the “shrunken log2 fold change” value was -0.388. Next, RRIRTRPPRLPRPRPRPWKPPRP: 0.0143; RRIRKRPPRLPRPRPRPDSLPRP: 0.00855. Regarding RRIRFRPPRLPRPRPRPMHRPRP, the “shrunken log2 fold change” value was -0.0791. Turning to RRIRLRPPRLPRPRPRPWRKPRP, the “shrunken log2 fold change” value is 0.125. Regarding RRIRARPPRLPRPRPRPGELPRP, the “shrunken log2 fold change” value was determined as 0.333.

On to RRIRNRPPRLPRPRPRPSQIPRP, for which the “shrunken log2 fold change” value was -0.664. Next, RRIRSRPPRLPRPRPRPIYYPRP: -0.641; RRIRLRPPRLPRPRPRPTVGPRP: 0.0924. Next, RRIRDRPPRLPRPRPRPMTGPRP: 0.0274. Next, RRIRTRPPRLPRPRPRPQTDPRP: -0.466; RRIRRRPPRLPRPRPRPFNQPRP: -0.0554; RRIRYRPPRLPRPRPRPEFPPRP: 0.011. RRIRHRPPRLPRPRPRPQQLPRP: the “shrunken log2 fold change” value was found to be 0.044.

RRIRTRPPRLPRPRPRPQHWPRP: the “shrunken log2 fold change” value stood at 0.08. In the case of RRIRNRPPRLPRPRPRPCPKPRP, the “shrunken log2 fold change” value was found to be 0.0342.

As for RRIRTRPPRLPRPRPRPANRPRP, the “shrunken log2 fold change” value is -0.0396.

With RRIRVRPPRLPRPRPRPQGSPRP, the “shrunken log2 fold change” value is -0.205. Next, RRIRNRPPRLPRPRPRPNRYPRP: -0.0433. Consider RRIRCRPPRLPRPRPRPHGIPRP, for which the “shrunken log2 fold change” value was -0.0487. Consider RRIRNRPPRLPRPRPRPKCDPRP, for which the “shrunken log2 fold change” value is -0.471.

As to RRIRHRPPRLPRPRPRPDYHPRP, the “shrunken log2 fold change” value was -0.336. Next, RRIRMRPPRLPRPRPRPSTCPRP: -0.0128; RRIRLRPPRLPRPRPRPIHGPRP: -0.0797; RRIRGRPPRLPRPRPRPFHAPRP: -0.13.

Consider RRIRLRPPRLPRPRPRPMYQPRP, for which the “shrunken log2 fold change” value was -0.29.

Regarding RRIRQRPPRLPRPRPRPFGFPRP, the “shrunken log2 fold change” value was -0.233. RRIRGRPPRLPRPRPRPMELPRP: the “shrunken log2 fold change” value came to 0.271.

On to RRIRFRPPRLPRPRPRPGMPPRP, for which the “shrunken log2 fold change” value is -0.0207.

For the sequence RRIRDRPPRLPRPRPRPCFDPRP, the “shrunken log2 fold change” value is 0.581.

On to RRIRIRPPRLPRPRPRPVMRPRP, for which the “shrunken log2 fold change” value was 0.144.

For RRIRLRPPRLPRPRPRPVCIPRP, the “shrunken log2 fold change” value is -0.498.

As for RRIRPRPPRLPRPRPRPYINPRP, the “shrunken log2 fold change” value is -0.739. Next, RRIRCRPPRLPRPRPRPRELPRP: 0.506.

Regarding RRIRCRPPRLPRPRPRPVCDPRP, the “shrunken log2 fold change” value was -0.245. Next, RRIRVRPPRLPRPRPRPFLWPRP: -0.698; RRIRKRPPRLPRPRPRPEPPPRP: 2.92. Regarding RRIRFRPPRLPRPRPRPWRLPRP, the “shrunken log2 fold change” value is -0.799. Next, RRIRQRPPRLPRPRPRPLLCPRP: 0.126; RRIRMRPPRLPRPRPRPSADPRP: 3.21. Next, RRIRNRPPRLPRPRPRPPGGPRP: 0.748. Next, RRIRIRPPRLPRPRPRPRYNPRP: -0.588; RRIRVRPPRLPRPRPRPMCEPRP: 0.0553; RRIRRRPPRLPRPRPRPSMEPRP: 0.0198. Take RRIRLRPPRLPRPRPRPRKAPRP: the “shrunken log2 fold change” value was determined as 0.022. As for RRIRLRPPRLPRPRPRPSVGPRP, the “shrunken log2 fold change” value amounted to 0.101. As to RRIRDRPPRLPRPRPRPAWEPRP, the “shrunken log2 fold change” value amounted to 1.07.

In the case of RRIRKRPPRLPRPRPRPATNPRP, the “shrunken log2 fold change” value is 0.712. As for RRIRARPPRLPRPRPRPYKAPRP, the “shrunken log2 fold change” value was -0.302.

For RRIRRRPPRLPRPRPRPADCPRP, the “shrunken log2 fold change” value was determined as 0.0869.

On to RRIRWRPPRLPRPRPRPQMVPRP, for which the “shrunken log2 fold change” value was 0.0853.

For the sequence RRIRARPPRLPRPRPRPLHTPRP, the “shrunken log2 fold change” value was 0.0174. Next, RRIRIRPPRLPRPRPRPRRGPRP: 0.184; RRIRIRPPRLPRPRPRPSIGPRP: -0.333; RRIRQRPPRLPRPRPRPHGKPRP: -0.352. As to RRIRQRPPRLPRPRPRPAKNPRP, the “shrunken log2 fold change” value is -0.0935. As for RRIRCRPPRLPRPRPRPVLMPRP, the “shrunken log2 fold change” value was -0.00563. Turning to RRIRPRPPRLPRPRPRPILGPRP, the “shrunken log2 fold change” value was -0.148. Next, RRIRTRPPRLPRPRPRPTGKPRP: -0.108; RRIRARPPRLPRPRPRPKWFPRP: 0.053.

Consider RRIRIRPPRLPRPRPRPSKRPRP, for which the “shrunken log2 fold change” value is -0.622. Regarding RRIRYRPPRLPRPRPRPTALPRP, the “shrunken log2 fold change” value is -0.0277. Next, RRIRVRPPRLPRPRPRPRNRPRP: -0.338; RRIRMRPPRLPRPRPRPSGRPRP: 0.556; RRIRMRPPRLPRPRPRPTHGPRP: 0.188.
